According to IntAct's records for PubMed 17431395:

Target: T1, goga2_human GOLGA2 (UniProt Q08379)
T1 sequence: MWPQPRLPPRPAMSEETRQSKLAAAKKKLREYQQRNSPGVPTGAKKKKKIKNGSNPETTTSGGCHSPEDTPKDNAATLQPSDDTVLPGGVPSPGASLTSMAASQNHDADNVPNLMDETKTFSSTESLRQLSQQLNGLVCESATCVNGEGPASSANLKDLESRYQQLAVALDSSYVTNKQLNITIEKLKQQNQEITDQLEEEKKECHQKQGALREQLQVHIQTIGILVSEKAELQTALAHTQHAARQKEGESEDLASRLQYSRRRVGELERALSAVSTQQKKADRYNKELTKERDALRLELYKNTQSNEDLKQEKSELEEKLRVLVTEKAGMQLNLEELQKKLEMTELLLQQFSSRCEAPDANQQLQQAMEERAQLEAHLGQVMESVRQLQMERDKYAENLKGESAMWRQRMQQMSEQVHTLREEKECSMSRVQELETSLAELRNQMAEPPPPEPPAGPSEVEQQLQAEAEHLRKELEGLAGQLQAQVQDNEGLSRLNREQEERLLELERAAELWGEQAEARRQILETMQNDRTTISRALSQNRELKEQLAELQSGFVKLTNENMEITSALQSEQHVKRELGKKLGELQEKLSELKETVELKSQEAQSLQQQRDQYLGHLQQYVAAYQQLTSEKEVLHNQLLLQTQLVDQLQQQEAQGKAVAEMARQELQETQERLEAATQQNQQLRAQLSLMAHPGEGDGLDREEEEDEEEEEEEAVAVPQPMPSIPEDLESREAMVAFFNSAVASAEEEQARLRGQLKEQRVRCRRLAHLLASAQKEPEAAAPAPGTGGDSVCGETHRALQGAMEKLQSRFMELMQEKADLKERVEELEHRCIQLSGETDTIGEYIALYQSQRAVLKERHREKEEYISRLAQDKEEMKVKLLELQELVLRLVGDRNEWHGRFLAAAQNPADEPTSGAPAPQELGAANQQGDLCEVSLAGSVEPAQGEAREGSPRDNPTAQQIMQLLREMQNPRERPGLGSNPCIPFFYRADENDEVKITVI

effect of a mutation on the interaction: disrupting interaction
Substance: Transthyretin (Homo sapiens) (from UniProt P02766) D38E
